Assay results published in patent publication US6368828 (US Dept. of Health and Human Services, dated 2002).

Target: the molecule itself
Experiment: DSG crosslinking of whole cell lysates; immunoprecipitation and immunoblot with anti-Stat6 serum
Method: Effect of Stat6c on endogenous Stat6 dimerization. To elucidate the molecular mechanism of Stat6c's potent transcriptional […], several possibilities were considered. Because endogenous Stat6 tyrosine phosphorylation is only partly diminished by Stat6c, inhibition of IL-4-induced endogenous Stat6 association with IL-4Rα or JAK activation appeared unlikely. […] Therefore, crosslinking studies were performed to investigate whether Stat6c might effect endogenous Stat6 dimerization. Whole cell lysates from IL-4-treated FDC-P2 cells or Stat6 and Stat6c transfectants were incubated with disuccinimidyl glutarate (DSG).

B1: endogenous murine Stat6 (other, UniProt P52633 1-837, looked up)
chain: MSLWGLISKMSPEKLQRLYVDFPQRLRHLLADWLESQPWEFLVGSDAFCYNMASALLSATVQRLQATAGEQGKGNSILPHISTLESIYQRDPLKLVATIRQILQGEKKAVIEEFRHLPGPFHRKQEELKFTTALGRLQHRVRETRLLRESLQQGAKTGQVSLQNLIDPPVNGPGPSEDLATMLQGTVGDLEATQALVLKRIQIWKRQQQLAGNGTPFEESLAGLQERCESLVEIYSQLQQEIGAASGELEPKTRASLISRLDEVLRTLVTSSFLVEKQPPQVLKTQTKFQAGVRFLLGLQFLGTSAKPPMVRADMVTEKQARELSLAQGPGTGVESTGEIMNNTVPLENSIPSNCCSALFKNLLLKKIKRCERKGTESVTEEKCAVLFSTSFTLGPNKLLIQLQALSLPLVVIVHGNQDNNAKATILWDNAFSEMDRVPFVVAERVPWEKMCETLNLKFMAEVGTSRGLLPEHFLFLAQKIFNDNSLSVEAFQHRCVSWSQFNKEILLGRGFTFWQWFDGVLDLTKRCLRSYWSDRLIIGFISKQYVTSLLLNEPDGTFLLRFSDSEIGGITIAHVIRGQDGSSQIENIQPFSAKDLSIRSLGDRIRDLAQLKNLYPKKPKDEAFRSHYKPEQMGKDGRGYVSTTIKMTVERDQPLPTPEPQMPAMVPPYDLGMAPDASMQLSSDMGYPPQSIHSFQSLEESMSVLPSFQEPHLQMPPNMSQITMPFDQPHPQGLLQCQSQEHAVSSPEPMLCSDVTMVEDSCLTQPVGGFPQGTWVSEDMYPPLMPPTEQDLTKLLLENQGEAGGSLGSQPLLQPSPYGQSGISLSHLDLRTNPSW
notes: Endogenous protein in FDC-P2 whole cell lysates; also called endogenous Stat6
**Q.** Does B1 bind?
**A.** binds
